Data on one molecule can be found in PMC9652377.

The target in this test is β-arrestin-2-YFP, P32121. Briefly: BRET (CXCR4-RLuc / βarr2-YFP) in HEK293T cells. The following applies: chain shown with the change; CXCL12 1e-6 M (highest concentration of the curve), 15 min; coel-h 10 min; parent: est. 0.11; read off a plot.
Sequence of β-arrestin-2-YFP, P32121 (P32121 whole entry): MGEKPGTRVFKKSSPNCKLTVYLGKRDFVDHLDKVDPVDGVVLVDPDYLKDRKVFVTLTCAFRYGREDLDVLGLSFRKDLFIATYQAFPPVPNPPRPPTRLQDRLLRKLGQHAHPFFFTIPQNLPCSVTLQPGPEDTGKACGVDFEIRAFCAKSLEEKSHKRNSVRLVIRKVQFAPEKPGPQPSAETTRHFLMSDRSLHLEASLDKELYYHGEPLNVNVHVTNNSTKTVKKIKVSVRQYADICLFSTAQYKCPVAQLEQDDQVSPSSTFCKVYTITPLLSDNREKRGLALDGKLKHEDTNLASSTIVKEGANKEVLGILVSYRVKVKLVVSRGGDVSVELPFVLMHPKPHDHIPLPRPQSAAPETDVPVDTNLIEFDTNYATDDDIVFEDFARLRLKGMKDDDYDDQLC

B1: chemokine receptor CXCR4 WT, CXCR4-RLuc, P61073 V198F + V197M/V198W (protein)
chain: MEGISIYTSDNYTEEMGSGDYDSMKEPCFREENANFNKIFLPTIYSIIFLTGIVGNGLVILVMGYQKKLRSMTDKYRLHLSVADLLFVITLPFWAVDAVANWYFGNFLCKAVHVIYTVNLYSSVLILAFISLDRYLAIVHATNSQRPRKLLAEKVVYVGVWIPALLLTIPDFIFANVSEADDRYICDRFYPNDLWVMWFQFQHIMVGLILPGIVILSCYCIIISKLSHSKGHQKRKALKTTVILILAFFACWLPYYIGISIDSFILLEIIKQGCEFENTVHKWISITEALAFFHCCLNPILYAFLGAKFKTSAQHALTSVSRGSSLKILSKGKRGGHSSVSTESESSSFHSS
For the molecule B1, the response is 0.09 ΔBRET.
